# T1: IFT57 (C. reinhardtii (endogenous in flagella), UniProt Q2XQY7 1-469)
# T1 sequence (looked up): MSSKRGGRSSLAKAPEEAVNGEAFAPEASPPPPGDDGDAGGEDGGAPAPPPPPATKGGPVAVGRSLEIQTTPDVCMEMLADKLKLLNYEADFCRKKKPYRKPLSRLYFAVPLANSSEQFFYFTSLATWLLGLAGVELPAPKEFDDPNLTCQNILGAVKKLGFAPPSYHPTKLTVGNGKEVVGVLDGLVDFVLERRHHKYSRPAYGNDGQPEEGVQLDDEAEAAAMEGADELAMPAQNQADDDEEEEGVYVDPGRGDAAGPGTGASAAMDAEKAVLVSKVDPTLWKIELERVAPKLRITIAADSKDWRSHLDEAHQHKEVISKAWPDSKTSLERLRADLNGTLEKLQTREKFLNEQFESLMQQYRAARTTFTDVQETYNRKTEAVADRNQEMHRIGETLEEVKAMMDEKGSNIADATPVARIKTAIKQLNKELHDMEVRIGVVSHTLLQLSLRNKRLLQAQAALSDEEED
# T2: IFT72 (C. reinhardtii (endogenous in flagella), UniProt Q6RCE1 1-641)
# T2 sequence (looked up): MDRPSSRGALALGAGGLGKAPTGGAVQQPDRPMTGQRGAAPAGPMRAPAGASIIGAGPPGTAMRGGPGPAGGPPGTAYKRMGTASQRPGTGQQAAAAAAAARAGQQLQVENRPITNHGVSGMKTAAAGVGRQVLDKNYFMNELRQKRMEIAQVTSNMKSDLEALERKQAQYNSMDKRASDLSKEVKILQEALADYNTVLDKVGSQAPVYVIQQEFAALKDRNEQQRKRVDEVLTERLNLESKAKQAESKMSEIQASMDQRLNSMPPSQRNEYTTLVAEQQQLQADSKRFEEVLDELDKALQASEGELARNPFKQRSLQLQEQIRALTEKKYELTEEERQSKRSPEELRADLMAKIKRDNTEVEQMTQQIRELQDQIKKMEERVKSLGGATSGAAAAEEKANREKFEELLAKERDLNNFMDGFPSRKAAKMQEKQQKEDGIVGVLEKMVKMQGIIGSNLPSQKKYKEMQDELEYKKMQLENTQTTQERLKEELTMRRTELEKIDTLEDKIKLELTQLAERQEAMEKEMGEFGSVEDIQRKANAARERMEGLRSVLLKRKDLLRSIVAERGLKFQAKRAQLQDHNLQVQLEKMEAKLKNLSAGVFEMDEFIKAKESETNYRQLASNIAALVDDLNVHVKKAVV
# Key:
# [1] = target: Strep-II-Tag IFT46 (C. reinhardtii) (UniProt A2T2X4); assay: pull-down
# IFT57 = target: T1, IFT57; assay: co-sedimentation
# IFT72 = target: T2, IFT72; assay: co-sedimentation
# Strep-II-Tag IFT46 (C. reinhardtii), sequence (A2T2X4 whole entry): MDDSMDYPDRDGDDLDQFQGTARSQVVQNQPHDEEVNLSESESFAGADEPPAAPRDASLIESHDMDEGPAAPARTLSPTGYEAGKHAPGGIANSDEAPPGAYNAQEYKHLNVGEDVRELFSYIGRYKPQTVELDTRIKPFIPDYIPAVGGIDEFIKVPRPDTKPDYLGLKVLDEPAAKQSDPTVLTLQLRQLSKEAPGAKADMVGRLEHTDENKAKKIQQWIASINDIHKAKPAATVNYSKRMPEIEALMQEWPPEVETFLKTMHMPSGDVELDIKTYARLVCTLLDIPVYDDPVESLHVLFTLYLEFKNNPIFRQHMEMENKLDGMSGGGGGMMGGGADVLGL
Molecule,stoichiometry N [1],stoichiometry N (IFT57),stoichiometry N (IFT72)
MBP-IFT70/CrDYF-1 (natural protein),1,,
"IFT70/CrDYF-1 (natural protein, C. reinhardtii (endogenous in flagella), UniProt A8ITN7 1-647, looked up) MAFFQQPARPIAEGQYTQTIYTLIKEQKFAEAIQHLQYQLQNVPESRAALSLLGYCYYYTGQYDMASQMYEQLVTLYPSNEDYKLYYAQSLYKGGMYPEASKAVVKVEGHQKAVTTLLVACSYEQDDLTGCRRQLDKCAPEDPDTMVNTGCIMFKEGKFEAARQKFNDAVQALGYQPELLYNIALCYYKTKQFGPALKHLAEIIEKAVREHPELSVGSNTDGMEVRSVGNSQTLKETALIEAFNLKAAIEYTMKNVEAAKEALTDMPPRAEEELDPVTLHNSALINMDSDPTGGFKKLNFLLQSPPFPPETFANLLLLYCKPSHGFYDLAADVLAENPQYAGKLLSPDLYDYLQAAIGRYKSPEEAFRRFDELATRHVEQLRRLTKQIQDARIARDNDAIKRAINEYDEALEAYIPGLMAMASIYWDMELYSNVEKIFRQSAEFCSEHEVWKLNVAHTFFMQDNHYKEAIRYYEPVVKKNADNLLGVTAIVLANLCVSYIMTSQNEEAEELMRKVEKEEERSSMQDPDKPCFHLCIINLVIGTLYCAKGNYEFGVSRIIKSLEPYDKKLETDTWYYAKRCFLALIENLAKHMIVLKDSSFTEIMAFLNEAEKHGKDIRVVFNEGKHQSRTIASEARMLKKMFLKLRD",,~1,~1

# From publication PMC2912355 (Molecular Biology of the Cell, 2010)
